According to patent US20040038369A1, “Airway-specific trypsin-like enzymes and method of using the same” (priority 2000, published 2004):

Experiments:
[1] = target: EGF antigen on the surface of the NCI-H292 cell membrane (proEGF) (human) (UniProt P01133); experiment: flow cytometry on NCI-H292 cells, control IgG1 1 µg, PerCP secondary
[2] = target: EGF antigen on the surface of the NCI-H292 cell membrane (proEGF) (human) (UniProt P01133); experiment: flow cytometry on NCI-H292 cells, control IgG1 1 µg, FITC secondary

Chain of EGF antigen on the surface of the NCI-H292 cell membrane (proEGF) (human) (P01133 23-1207): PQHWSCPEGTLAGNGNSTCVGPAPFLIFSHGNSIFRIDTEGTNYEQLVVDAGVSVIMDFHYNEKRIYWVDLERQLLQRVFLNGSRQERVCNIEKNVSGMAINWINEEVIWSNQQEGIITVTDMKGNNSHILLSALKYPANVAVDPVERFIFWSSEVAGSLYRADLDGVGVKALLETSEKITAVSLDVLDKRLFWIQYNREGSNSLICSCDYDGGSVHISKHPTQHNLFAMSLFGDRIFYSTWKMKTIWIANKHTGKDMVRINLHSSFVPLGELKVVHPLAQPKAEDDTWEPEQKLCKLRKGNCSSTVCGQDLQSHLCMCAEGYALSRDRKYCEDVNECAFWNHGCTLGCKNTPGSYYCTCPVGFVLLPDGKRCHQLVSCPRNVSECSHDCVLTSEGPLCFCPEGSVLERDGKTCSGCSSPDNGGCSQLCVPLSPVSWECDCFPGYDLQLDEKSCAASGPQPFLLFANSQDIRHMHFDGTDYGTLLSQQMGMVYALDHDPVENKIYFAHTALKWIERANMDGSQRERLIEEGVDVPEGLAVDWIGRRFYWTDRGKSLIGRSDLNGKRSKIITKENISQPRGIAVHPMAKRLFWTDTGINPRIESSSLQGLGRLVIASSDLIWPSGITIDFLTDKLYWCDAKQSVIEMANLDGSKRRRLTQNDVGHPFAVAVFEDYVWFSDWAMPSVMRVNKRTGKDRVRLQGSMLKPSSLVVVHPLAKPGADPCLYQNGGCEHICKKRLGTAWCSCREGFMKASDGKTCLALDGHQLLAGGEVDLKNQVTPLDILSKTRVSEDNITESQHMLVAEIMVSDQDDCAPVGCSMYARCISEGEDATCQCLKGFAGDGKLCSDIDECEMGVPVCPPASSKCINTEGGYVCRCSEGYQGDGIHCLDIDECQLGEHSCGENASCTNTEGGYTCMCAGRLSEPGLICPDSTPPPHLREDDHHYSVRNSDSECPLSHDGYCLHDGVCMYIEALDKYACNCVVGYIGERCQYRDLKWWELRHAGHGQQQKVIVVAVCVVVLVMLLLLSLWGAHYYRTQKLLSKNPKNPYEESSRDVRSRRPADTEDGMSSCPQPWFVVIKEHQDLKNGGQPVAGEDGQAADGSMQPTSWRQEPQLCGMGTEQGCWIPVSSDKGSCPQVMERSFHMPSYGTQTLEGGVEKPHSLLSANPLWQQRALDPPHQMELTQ

- average fluorescence intensity (back ground) [1]: 8.44
- average fluorescence intensity (back ground) [2]: 4.62
Substance: normal mouse IgG1 (produced by R & D Corp.) (antibody)
